Measurements: EP4806514A2 (Lepu Biopharma Co., Ltd., dated 2025)

T1: human CDH17, full length, expressed on cells (HEK293-hCDH17); AsPC-1, HCT-8, AGS, LoVo, KATO III, HT-29 tumor … (human, UniProt Q12864 23-832)
T1 construct: also called human CDH17 expressed on tumor cells
T1 sequence: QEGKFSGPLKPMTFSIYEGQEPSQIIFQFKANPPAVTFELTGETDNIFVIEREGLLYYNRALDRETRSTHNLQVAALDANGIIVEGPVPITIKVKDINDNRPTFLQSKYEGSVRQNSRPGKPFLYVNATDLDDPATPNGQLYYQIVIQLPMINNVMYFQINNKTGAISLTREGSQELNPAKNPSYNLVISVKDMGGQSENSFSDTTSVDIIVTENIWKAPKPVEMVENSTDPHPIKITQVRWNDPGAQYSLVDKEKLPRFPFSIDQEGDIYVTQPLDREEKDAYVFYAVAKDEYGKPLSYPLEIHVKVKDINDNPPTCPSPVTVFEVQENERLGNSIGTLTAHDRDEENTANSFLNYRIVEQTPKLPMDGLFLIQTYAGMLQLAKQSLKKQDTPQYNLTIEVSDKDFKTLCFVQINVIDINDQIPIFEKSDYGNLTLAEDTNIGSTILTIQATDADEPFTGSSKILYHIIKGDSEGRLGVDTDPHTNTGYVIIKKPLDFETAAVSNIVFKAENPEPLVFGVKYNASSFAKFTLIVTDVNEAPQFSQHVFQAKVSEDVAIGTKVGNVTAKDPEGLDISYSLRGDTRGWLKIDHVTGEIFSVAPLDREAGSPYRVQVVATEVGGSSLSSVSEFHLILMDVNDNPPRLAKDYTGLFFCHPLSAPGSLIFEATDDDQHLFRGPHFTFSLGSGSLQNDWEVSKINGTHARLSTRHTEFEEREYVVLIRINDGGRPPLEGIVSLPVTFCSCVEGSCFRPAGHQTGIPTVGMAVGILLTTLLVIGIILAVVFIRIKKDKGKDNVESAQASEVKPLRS

T2: hCDH17-his (full length extracellular domain of human CDH17, Q23-M787, his tag at the C-terminal) (human, UniProt Q12864 23-787)
T2 construct: Limits of the construct (UniProt Q12864, Q23-M787, C-terminal his tag); also called human CDH17-his protein; human CDH17 protein
T2 sequence: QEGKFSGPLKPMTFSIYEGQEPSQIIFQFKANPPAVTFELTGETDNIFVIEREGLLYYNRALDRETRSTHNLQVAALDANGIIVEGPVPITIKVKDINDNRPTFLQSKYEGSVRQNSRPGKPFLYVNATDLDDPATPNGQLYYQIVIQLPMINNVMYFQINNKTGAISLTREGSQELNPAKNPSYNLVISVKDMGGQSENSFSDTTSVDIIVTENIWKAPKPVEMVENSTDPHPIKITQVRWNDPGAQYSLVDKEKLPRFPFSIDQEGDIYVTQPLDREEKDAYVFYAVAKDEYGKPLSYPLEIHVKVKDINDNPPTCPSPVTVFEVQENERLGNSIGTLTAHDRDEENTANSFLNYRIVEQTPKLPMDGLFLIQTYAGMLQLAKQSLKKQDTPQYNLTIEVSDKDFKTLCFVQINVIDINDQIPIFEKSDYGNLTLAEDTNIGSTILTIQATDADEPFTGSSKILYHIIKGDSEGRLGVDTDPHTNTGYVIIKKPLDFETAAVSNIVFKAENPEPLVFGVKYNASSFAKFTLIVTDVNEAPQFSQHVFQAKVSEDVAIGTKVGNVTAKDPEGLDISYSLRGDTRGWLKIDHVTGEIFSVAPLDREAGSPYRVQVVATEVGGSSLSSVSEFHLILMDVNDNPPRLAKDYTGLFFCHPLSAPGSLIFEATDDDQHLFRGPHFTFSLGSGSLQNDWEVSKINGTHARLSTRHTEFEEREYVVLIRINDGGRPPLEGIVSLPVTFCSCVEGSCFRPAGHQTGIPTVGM


Key:
[1] = molecular target: T1, human CDH17, full length, expressed on …; assay: flow cytometry, HCT-8 cells
[2] = molecular target: T2, hCDH17-his (full length extracellular …); assay: SPR (Biacore 8K), two doses, antibody captured on Protein A chip, hCDH17-his at 25 nM and 100 nM
[3] = molecular target: T1, human CDH17, full length, expressed on …; assay: flow cytometry, LoVo, HCT-8 and AsPC1 cells

Binder | binding result [1] | binding result [2] | binding result [3]
29H8D3-z12p3 (antibody, V domains shown, PTM-removed variant of 29H8D3-z12) VH: QVQLVQSGAEVKKPGASVKVSCKASGYTFTDHTIHWMRQRPGQGLEWIGYIYPRDGYTKYNEKFKDRATLTADTSTSTAYMELRSLRSDDTAVYYCARFYYGYWYFDVWGQGTTVTVSS VL: DIVMTQSPLSLPVTPGEPASISCRSSKSLLRSNANTYLYWFLQKPGQSPQVLIYRMSNLASGVPDRFSGSGSGTDFTLKISRVEAEDVGVYYCMQHLEYPFTFGQGTKLEIK | binds | binds | –
29H8D3-z12p7 (antibody, V domains shown, PTM-removed variant of 29H8D3-z12) VH: QVQLVQSGAEVKKPGASVKVSCKASGYTFTDHTIHWMRQRPGQGLEWIGYIYPREGYTKYNEKFKDRATLTADTSTSTAYMELRSLRSDDTAVYYCARFYYGYWYFDVWGQGTTVTVSS VL: DIVMTQSPLSLPVTPGEPASISCRSSKSLLRSNAQTYLYWFLQKPGQSPQVLIYRMSNLASGVPDRFSGSGSGTDFTLKISRVEAEDVGVYYCMQHLEYPFTFGQGTKLEIK | binds | binds | –
29H8D3-z12p4 (antibody, V domains shown, PTM-removed variant of 29H8D3-z12) VH: QVQLVQSGAEVKKPGASVKVSCKASGYTFTDHTIHWMRQRPGQGLEWIGYIYPREGYTKYNEKFKDRATLTADTSTSTAYMELRSLRSDDTAVYYCARFYYGYWYFDVWGQGTTVTVSS VL: DIVMTQSPLSLPVTPGEPASISCRSSKSLLRSNANTYLYWFLQKPGQSPQVLIYRMSNLASGVPDRFSGSGSGTDFTLKISRVEAEDVGVYYCMQHLEYPFTFGQGTKLEIK | binds | binds | –
29H8D3-z12p22 (antibody, V domains shown, PTM-removed variant of 29H8D3-z12; VH is that of 29H8D3-z12) VH: QVQLVQSGAEVKKPGASVKVSCKASGYTFTDHTIHWMRQRPGQGLEWIGYIYPRDGYTKYNEKFKDRATLTADTSTSTAYMELRSLRSDDTAVYYCARFYYGYWYFDVWGQGTTVTVSS VL: DIVMTQSPLSLPVTPGEPASISCRSSKSLLRSNGNTYLYWFLQKPGQSPQVLIYRMSNLASGVPDRFSGSGSGTDFTLKISRVEAEDVGVYYCLQHLEYPFTFGQGTKLEIK | binds | binds | –
29D2D7-z19p3 (antibody, V domains shown, PTM-removed variant of 29D2D7-z19; VH is that of 29D2D7-z19) VH: QVQLVQSGAEVKKPGASVKVSCKASGYTFTDYDMHWVKQAPGQGLEWIGGFDPESAGTVYNLRFKDKATLTADKSTSTAYMELRSLRSEDTAVYYCARKGYYSVSSPFTYWGQGTLVTVSS VL: not shown | binds | binds | –
29D2D7-z19p5 (antibody, V domains shown, PTM-removed variant of 29D2D7-z19; VH is that of 29D2D7-z19) VH: QVQLVQSGAEVKKPGASVKVSCKASGYTFTDYDMHWVKQAPGQGLEWIGGFDPESAGTVYNLRFKDKATLTADKSTSTAYMELRSLRSEDTAVYYCARKGYYSVSSPFTYWGQGTLVTVSS VL: not shown | binds | binds | –
69E3H11-z12a19 (antibody, V domains shown) VH: QVQLVQSGAEVKKPGASVKVSCKASGYTFTTYWMHWVKQAPGQRLEWIGEIDPSDSYANYNQKFKGKATLTVDKSASTAYMELSSLRSEDTAVYYCALYYGYGDWGQGTTVTVSS VL: EIVLTQSPGTLSLSPGERATLSCSVSSSISKIHLHWYQQKPGQAPRLLIYRTSNLASGIPDRFSGSGSGTDFTLTISRLEPEDFAVYYCQQGSNLPLTFGQGTRLEIK | – | binds | binds
69E3H11-z12a21 (antibody, V domains shown) VH: QVQLVQSGAEVKKPGASVKVSCKASGYTFTTYWMHWVKQAPGQRLEWIGEIDPSDSYANYNQKFKGKATLTVDKSASTAYMELSSLRSEDTAVYYCALYYGYGDWGQGTTVTVSS VL: EIVLTQSPGTLSLSPGERATLSCSVSASISRIHLHWYQQKPGQAPRLLIYRTSNLASGIPDRFSGSGSGTDFTLTISRLEPEDFAVYYCQQGSNLPLTFGQGTRLEIK | – | binds | binds
69E3H11-z12a42 (antibody, V domains shown) VH: QVQLVQSGAEVKKPGASVKVSCKASGYTFTTYWMHWVKQAPGQRLEWIGEIDPSDSYANYNQKFKGKATLTVDKSASTAYMELSSLRSEDTAVYYCALYYGYGDWGQGTTVTVSS VL: EIVLTQSPGTLSLSPGERATLSCSVSASISRIHLHWYQQKPGQAPRLLIYRTRNRASGIPDRFSGSGSGTDFTLTISRLEPEDFAVYYCQQGSNLPLTFGQGTRLEIK | – | binds | binds
69E3H11-z12a20 (antibody, V domains shown) VH: QVQLVQSGAEVKKPGASVKVSCKASGYTFTTYWMHWVKQAPGQRLEWIGEIDPSDSYANYNQKFKGKATLTVDKSASTAYMELSSLRSEDTAVYYCALYYGYGDWGQGTTVTVSS VL: EIVLTQSPGTLSLSPGERATLSCSVSSSISRIHLHWYQQKPGQAPRLLIYRTSNLASGIPDRFSGSGSGTDFTLTISRLEPEDFAVYYCQQGSNLPLTFGQGTRLEIK | – | binds | binds
69E3H11-z12a27 (antibody, V domains shown) VH: QVQLVQSGAEVKKPGASVKVSCKASGYTFTTYWMHWVKQAPGQRLEWIGEIDPSDSYANYNQKFKGKATLTVDKSASTAYMELSSLRSEDTAVYYCALYYGYGDWGQGTTVTVSS VL: EIVLTQSPGTLSLSPGERATLSCSVSSSISSIHLHWYQQKPGQAPRLLIYRTRNRASGIPDRFSGSGSGTDFTLTISRLEPEDFAVYYCQQGSNLPLTFGQGTRLEIK | – | binds | binds
69E3H11-z12a26 (antibody, V domains shown) VH: QVQLVQSGAEVKKPGASVKVSCKASGYTFTTYWMHWVKQAPGQRLEWIGEIDPSDSYANYNQKFKGKATLTVDKSASTAYMELSSLRSEDTAVYYCALYYGYGDWGQGTTVTVSS VL: EIVLTQSPGTLSLSPGERATLSCSVSSSISSIHLHWYQQKPGQAPRLLIYRTRNLASGIPDRFSGSGSGTDFTLTISRLEPEDFAVYYCQQGSNLPLTFGQGTRLEIK | – | binds | binds
69E3H11-z12a28 (antibody, V domains shown) VH: QVQLVQSGAEVKKPGASVKVSCKASGYTFTTYWMHWVKQAPGQRLEWIGEIDPSDSYANYNQKFKGKATLTVDKSASTAYMELSSLRSEDTAVYYCALYYGYGDWGQGTTVTVSS VL: EIVLTQSPGTLSLSPGERATLSCSVSSSISSIHLHWYQQKPGQAPRLLIYRTKNLASGIPDRFSGSGSGTDFTLTISRLEPEDFAVYYCQQGSNLPLTFGQGTRLEIK | – | binds | binds
